# Assay results reported in patent US20130336893A1 (Sanofi, published 2013).
# *1 amine or outer side, *2 acyl side, *3 side chain or, on linkers, in order; H or OH if unused. Where no end group is shown, it is not given here. [ ]: non-standard residue; d: D form. Cysteamide = C(CS[*:3])N[*:1]
# B1: SEQ ID NO: (37) (peptide)
# peptide: H[dS]QGTFTSDLSKQMDSRRAQEFIEWLKNGGPSSGAPPPS-NH2
# modifications: N-terminus assumed
# SMILES: CC[C@H](C)[C@H](NC(=O)[C@H](Cc1ccccc1)NC(=O)[C@H](CCC(=O)O)NC(=O)[C@H](CCC(N)=O)NC(=O)[C@H](C)NC(=O)[C@H](CCCNC(=N)N)NC(=O)[C@H](CCCNC(=N)N)NC(=O)[C@H](CO)NC(=O)[C@H](CC(=O)O)NC(=O)[C@H](CCSC)NC(=O)[C@H](CCC(N)=O)NC(=O)[C@H](CCCCN)NC(=O)[C@H](CO)NC(=O)[C@H](CC(C)C)NC(=O)[C@H](CC(=O)O)NC(=O)[C@H](CO)NC(=O)[C@@H](NC(=O)[C@H](Cc1ccccc1)NC(=O)[C@@H](NC(=O)CNC(=O)[C@H](CCC(N)=O)NC(=O)[C@@H](CO)NC(=O)[C@@H](N)Cc1c[nH]cn1)[C@@H](C)O)[C@@H](C)O)C(=O)N[C@@H](CCC(=O)O)C(=O)N[C@@H](Cc1c[nH]c2ccccc12)C(=O)N[C@@H](CC(C)C)C(=O)N[C@@H](CCCCN)C(=O)N[C@@H](CC(N)=O)C(=O)NCC(=O)NCC(=O)N1CCC[C@H]1C(=O)N[C@@H](CO)C(=O)N[C@@H](CO)C(=O)NCC(=O)N[C@@H](C)C(=O)N1CCC[C@H]1C(=O)N1CCC[C@H]1C(=O)N1CCC[C@H]1C(=O)N[C@@H](CO)C(N)=O
# B2: SEQ ID NO: (43) (peptide)
# peptide: H[dS]QGTFTSDLSKQFDSRRAQDFIEWLKNGGPSSGAPPPS-NH2
# modifications: N-terminus assumed
# SMILES: CC[C@H](C)[C@H](NC(=O)[C@H](Cc1ccccc1)NC(=O)[C@H](CC(=O)O)NC(=O)[C@H](CCC(N)=O)NC(=O)[C@H](C)NC(=O)[C@H](CCCNC(=N)N)NC(=O)[C@H](CCCNC(=N)N)NC(=O)[C@H](CO)NC(=O)[C@H](CC(=O)O)NC(=O)[C@H](Cc1ccccc1)NC(=O)[C@H](CCC(N)=O)NC(=O)[C@H](CCCCN)NC(=O)[C@H](CO)NC(=O)[C@H](CC(C)C)NC(=O)[C@H](CC(=O)O)NC(=O)[C@H](CO)NC(=O)[C@@H](NC(=O)[C@H](Cc1ccccc1)NC(=O)[C@@H](NC(=O)CNC(=O)[C@H](CCC(N)=O)NC(=O)[C@@H](CO)NC(=O)[C@@H](N)Cc1c[nH]cn1)[C@@H](C)O)[C@@H](C)O)C(=O)N[C@@H](CCC(=O)O)C(=O)N[C@@H](Cc1c[nH]c2ccccc12)C(=O)N[C@@H](CC(C)C)C(=O)N[C@@H](CCCCN)C(=O)N[C@@H](CC(N)=O)C(=O)NCC(=O)NCC(=O)N1CCC[C@H]1C(=O)N[C@@H](CO)C(=O)N[C@@H](CO)C(=O)NCC(=O)N[C@@H](C)C(=O)N1CCC[C@H]1C(=O)N1CCC[C@H]1C(=O)N1CCC[C@H]1C(=O)N[C@@H](CO)C(N)=O
# B3: SEQ ID NO: (33) (peptide)
# peptide: H[dS]QGTFTSDLSKQMDSRRAQDFIEWLKKGGPSSGEPPPS-NH2
# modifications: N-terminus assumed
# SMILES: CC[C@H](C)[C@H](NC(=O)[C@H](Cc1ccccc1)NC(=O)[C@H](CC(=O)O)NC(=O)[C@H](CCC(N)=O)NC(=O)[C@H](C)NC(=O)[C@H](CCCNC(=N)N)NC(=O)[C@H](CCCNC(=N)N)NC(=O)[C@H](CO)NC(=O)[C@H](CC(=O)O)NC(=O)[C@H](CCSC)NC(=O)[C@H](CCC(N)=O)NC(=O)[C@H](CCCCN)NC(=O)[C@H](CO)NC(=O)[C@H](CC(C)C)NC(=O)[C@H](CC(=O)O)NC(=O)[C@H](CO)NC(=O)[C@@H](NC(=O)[C@H](Cc1ccccc1)NC(=O)[C@@H](NC(=O)CNC(=O)[C@H](CCC(N)=O)NC(=O)[C@@H](CO)NC(=O)[C@@H](N)Cc1c[nH]cn1)[C@@H](C)O)[C@@H](C)O)C(=O)N[C@@H](CCC(=O)O)C(=O)N[C@@H](Cc1c[nH]c2ccccc12)C(=O)N[C@@H](CC(C)C)C(=O)N[C@@H](CCCCN)C(=O)N[C@@H](CCCCN)C(=O)NCC(=O)NCC(=O)N1CCC[C@H]1C(=O)N[C@@H](CO)C(=O)N[C@@H](CO)C(=O)NCC(=O)N[C@@H](CCC(=O)O)C(=O)N1CCC[C@H]1C(=O)N1CCC[C@H]1C(=O)N1CCC[C@H]1C(=O)N[C@@H](CO)C(N)=O
# B4: SEQ ID NO: (35) (peptide)
# peptide: H[dS]QGTFTSDLSKQMDSRRAQLFIEWLKNGGPSSGAPPPS-NH2
# modifications: N-terminus assumed
# SMILES: CC[C@H](C)[C@H](NC(=O)[C@H](Cc1ccccc1)NC(=O)[C@H](CC(C)C)NC(=O)[C@H](CCC(N)=O)NC(=O)[C@H](C)NC(=O)[C@H](CCCNC(=N)N)NC(=O)[C@H](CCCNC(=N)N)NC(=O)[C@H](CO)NC(=O)[C@H](CC(=O)O)NC(=O)[C@H](CCSC)NC(=O)[C@H](CCC(N)=O)NC(=O)[C@H](CCCCN)NC(=O)[C@H](CO)NC(=O)[C@H](CC(C)C)NC(=O)[C@H](CC(=O)O)NC(=O)[C@H](CO)NC(=O)[C@@H](NC(=O)[C@H](Cc1ccccc1)NC(=O)[C@@H](NC(=O)CNC(=O)[C@H](CCC(N)=O)NC(=O)[C@@H](CO)NC(=O)[C@@H](N)Cc1c[nH]cn1)[C@@H](C)O)[C@@H](C)O)C(=O)N[C@@H](CCC(=O)O)C(=O)N[C@@H](Cc1c[nH]c2ccccc12)C(=O)N[C@@H](CC(C)C)C(=O)N[C@@H](CCCCN)C(=O)N[C@@H](CC(N)=O)C(=O)NCC(=O)NCC(=O)N1CCC[C@H]1C(=O)N[C@@H](CO)C(=O)N[C@@H](CO)C(=O)NCC(=O)N[C@@H](C)C(=O)N1CCC[C@H]1C(=O)N1CCC[C@H]1C(=O)N1CCC[C@H]1C(=O)N[C@@H](CO)C(N)=O
# Legend:
# human GLP-1 receptor = human GLP-1 receptor (human, UniProt P43220 24-463); experiment: cell-based or functional assay
# human glucagon receptor = human glucagon receptor (human, UniProt P47871 26-477); experiment: cell-based or functional assay
# Chain of human glucagon receptor (P47871 26-477): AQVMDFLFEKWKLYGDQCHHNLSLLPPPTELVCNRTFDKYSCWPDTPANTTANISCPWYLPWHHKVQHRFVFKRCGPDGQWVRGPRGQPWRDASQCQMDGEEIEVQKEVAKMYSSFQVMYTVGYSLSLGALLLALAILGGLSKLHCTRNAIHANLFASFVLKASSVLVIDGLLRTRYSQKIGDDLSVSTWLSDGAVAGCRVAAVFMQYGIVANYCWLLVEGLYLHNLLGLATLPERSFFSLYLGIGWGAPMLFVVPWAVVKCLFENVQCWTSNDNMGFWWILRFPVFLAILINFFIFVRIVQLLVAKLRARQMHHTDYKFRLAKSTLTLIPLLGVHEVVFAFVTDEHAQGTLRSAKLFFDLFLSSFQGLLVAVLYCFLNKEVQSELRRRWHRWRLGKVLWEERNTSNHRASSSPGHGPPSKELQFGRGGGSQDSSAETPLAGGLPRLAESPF
Binder,EC50 hGLP-1R (cAMP formation) (human GLP-1 receptor),EC50 hGlucagonR (cAMP formation) (human glucagon receptor)
B1,75.9 pM,58.2 pM
HSQGTFTSDLSKQMDSRRAQDFIEWLKNGGPSSGAPPPS-{NH‑CH2‑CH2‑S‑tBu} [SEQ ID NO: (36)],18.9 pM,45.8 pM
HSQGTFTSDLSKQMDSRRAQDFIEWLKNGGPSSGAPPPS-Cysteamide [SEQ ID NO: (8)],20.3 pM,35.1 pM
B2,300 pM,148 pM
HAQGTFTSDLSKQMDSRRAQDFIEWLKNGGPSSGAPPPS-NH2 [SEQ ID NO: (39)],4.6 pM,683 pM
B3,138 pM,347 pM
HSQGTFTSDLSKQMDSRRAQDFIEWLKNGGPSSGAPPPS-{NH‑(CH2)5‑OH} [SEQ ID NO: (50)],14 pM,22.5 pM
H[dA]QGTFTSDLSKQMDSRRAQDFIEWLKNGGPSSGAPPPS-NH2 [SEQ ID NO: (40)],8.1 pM,1180 pM
B4,89.4 pM,43 pM
HGQGTFTSDLSKQMDSRRAQDFIEWLKNGGPSSGAPPPS-NH2 [SEQ ID NO: (11)],25.4 pM,2320 pM
